Consider six molecules from patent US20240239894A1, “THERAPEUTIC BINDING MOLECULES” (MedImmune Limited, priority 2020, published 2024).

First the molecules themselves.
T1: MurineB7-H4 (Mus musculus, UniProt Q7TSP5)
T1 construct: Mouse B7H4 ECD; FLAG (C); 10His (C); made in house
T1 sequence (Q7TSP5 25-257 limits assumed): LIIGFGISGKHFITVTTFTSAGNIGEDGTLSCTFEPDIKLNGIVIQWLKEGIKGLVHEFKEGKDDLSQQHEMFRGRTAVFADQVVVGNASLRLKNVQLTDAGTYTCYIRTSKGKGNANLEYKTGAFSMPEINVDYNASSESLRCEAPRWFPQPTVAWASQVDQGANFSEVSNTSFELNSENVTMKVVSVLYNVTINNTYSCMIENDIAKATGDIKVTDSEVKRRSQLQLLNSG

T2: HumanB7-H4 (Homo sapiens, UniProt Q7Z7D3)
T2 construct: Human B7H4 ECD; FLAG; 10His; made in house
T2 sequence (Q7Z7D3 25-259 limits assumed): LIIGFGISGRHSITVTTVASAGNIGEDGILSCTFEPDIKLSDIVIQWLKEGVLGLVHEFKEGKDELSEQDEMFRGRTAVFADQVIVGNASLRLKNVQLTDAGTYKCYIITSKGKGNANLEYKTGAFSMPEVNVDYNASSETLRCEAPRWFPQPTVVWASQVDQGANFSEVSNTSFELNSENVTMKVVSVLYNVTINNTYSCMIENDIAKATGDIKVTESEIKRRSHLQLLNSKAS

T3: recombinant mouse B7-H4 (Mus musculus, UniProt Q7TSP5)
T3 sequence (Q7TSP5 25-257): T1 sequence (Q7TSP5 25-257 limits assumed)

T4: monomeric B7-H4-FLAG (Homo sapiens, UniProt Q7Z7D3)
T4 construct: 10His; made in house
T4 sequence (Q7Z7D3 25-259 limits assumed): T2 sequence (Q7Z7D3 25-259 limits assumed)

B1: ZY0EOB-F05: anti-B7-H4 antibody clone, VH SEQ ID NO: 35, VL SEQ ID NO: 36 (antibody, V domains shown)
VH: QVQLQESGPGLVKPSQTLSLTCTVSDGSISSGGYYWSWIRQHPGKGLEWIGNIYYSGSTYYNPSLKSRVTISVDTSKNQFSLKLNSVTAADTAVYYCATEKALATVTPSGYENYYTVDVWGQGTTVTVSS
VL: DIQLTQSPSFLSASVGDRVTITCWASQGISSYLAWYQQKPGKAPKLLIYAASTLQSGVPSRFSGSGSGTEFTLTISSLQPEDFATYYCQHLNSYPLTFGGGTKVEIK
B2: ZY0E05-E07: anti-B7-H4 antibody clone, VH SEQ ID NO: 37, VL SEQ ID NO: 38 (antibody, V domains shown)
VH: B1 VH with D26G, N85S, T99R, T105S, T107I, T116V
VL: B1 VL with D17G, S30A, S31G
B3: ZY0EQD-E02: anti-B7-H4 antibody clone, VH SEQ ID NO: 33, VL SEQ ID NO: 34 (antibody, V domains shown)
VH: QVQLQQWGAGLLKPSETLSLTCAVYGGSFSGYYWNWIRQPPGKGLEWIGEINHSGSTSYNPSLKSRVTISVDTSKNQFSLKLSSVTAADTAVYYCARVLYNWNVDSWGQGTLVTVSS
VL: DIQMTQSPSSLSASVGDRVTITCRASQDIRNDVGWYQQKPGKAPKRLIYAASRLQSGVPSRFSGSGSGTEFTLTISSLQPEDFATYYCLQHNSYPRTFGQGTKVEIK
B4: ZY0EPQ-E02: anti-B7-H4 antibody clone, VH SEQ ID NO: 31, VL SEQ ID NO: 32 (antibody, V domains shown)
VH: B3 VH with S58N, S70L, V98N, V104L
VL: B3 VL with D28G, V33L, K42R, A50V, R53S
B5: ZY0EP0-C07: anti-B7-H4 antibody clone, VH SEQ ID NO: 39, VL SEQ ID NO: 40 (antibody, V domains shown)
VH: QVQLVESGGVLVKPGGSLRLSCAASGFTLSDYYMSWIRQAPGMGLEWVSYISSSGSTIYYTDSVKGRFTISRDSAKNSLYLQMNSLRAEDTAVYYCARDGVGFDYWGQGTLVTVSS
VL: EIVLTQSPGTLSLFPGERATLSCRASQSVSSSYLAWYQQKPGQSPRLLIYAASSRATGIPDRFSGSGSGTDFTLTISRLEPEDFAVYYCQQYGSSPLYTFGQGTKLEIK
B6: E02-INT Fab: antigen binding fragment of anti-B7-H4 antibody E02-INT (antibody, V domains shown)
VH: B3 VH with T21A, A23T
VL: B3 VL

Residue numbers refer to the chain shown, from its start.

One assay deals with B7-H4-SV (splice variant). Nature of the assay: ForteBio Octet affinity. Particulars: hIgG1 (n = 1). Background: Biolayer interferometry detects binding as a change in optical thickness at a sensor tip.
In the case of B1, the “kdis” value was 0.000598 s⁻¹ and the kon – broadly, the rate constant with which the complex forms – worked out at 4710 M⁻¹ s⁻¹.

As for B2, the “kdis” value is 0.000528 s⁻¹ and the “kon” value was determined as 2910 M⁻¹ s⁻¹.

As for B3, the “kdis” value is 0.00349 s⁻¹ and the on-rate constant (kon) was determined as 4190 M⁻¹ s⁻¹.

Consider B4, for which the “kdis” value stood at 0.00252 s⁻¹ and the “kon” value stood at 2460 M⁻¹ s⁻¹.

For the molecule B5, the “KD (nM)” value is reported as “No Binding”.

The same assay, now with this note: hIgG1-TM (n = 4-7).
For B1, the “kdis” value is 0.000584 s⁻¹ and the “kon” value was determined as 3350 M⁻¹ s⁻¹.

In the case of B2, the “kdis” value came to 0.000499 s⁻¹ and the association rate constant (kon) came out at 1890 M⁻¹ s⁻¹.

Take B3: the “kdis” value was 0.00269 s⁻¹ and the “kon” value was determined as 3360 M⁻¹ s⁻¹.

B4: the “kdis” value came to 0.00229 s⁻¹ and the “kon” value was found to be 1380 M⁻¹ s⁻¹.

On to B5, for which the “KD (nM)” value is “No Binding”.

The same assay, now with this note: summary Table 14.
Take B5: the “Octet KD (nM)” value is reported as “No Binding”.

Another assay has as its system B7-H4 from human (including a splice variant), cynomolgus macaque, mouse and rat. Nature of the assay: Clone ZY0EQD_E02 specificity ELISA. Type of assay: binding. Particulars: Maia format mAbs. (In an ELISA, binding on a coated surface is turned into a signal by an enzyme label.)
Regarding B3, the “binding profile to B7-H4 antigens” value was “binding to human, cynomolgus, mouse and rat B7-H4”.

The next assay concerns transfected CHOs (full length B7-H4 vector). Nature of the assay: On-cell western. Type of assay: cell-based, Chinese hamster.
Details: not given
As to the method:
(§1) The on-cell western method was developed and used to run 5 exemplary antibody clones with the following cells: SKBR3, A549, OVCAR4 (all minus transfections with B7-H4 vector), CHO and HEK cells (plus and minus transfection with full length B7-H4 vector).
(§2) Cells were detached from T175 flasks using Accutase and counted. Transfection method used was essentially that stated in the Invitrogen Lipofectamine LTX protocol (high throughput protocol using the reverse transfection method). 100 μl of cells (4.5×10^4 per 100 μl) was added to 96 well plates containing the DNA-lipofectamine mix. Plates incubated at 37° C. for 18 hours and fixed using 10% buffered formalin overnight. Plates were blocked with Odyssey blocking buffer, incubated with appropriate primary antibodies overnight followed by washing and detection with the appropriate Odyssey secondary antibody.
(§3) Plates were air dried and scanned using the Odyssey Imager using the recommended scan levels provided by the manufacturer.
Take B1: the “binding to transfected CHOs” value is on record as “bind”.

With B2, the “binding to transfected CHOs” value is listed as “bind”.

The target in a further assay is T1, MurineB7-H4. The assay can be described thus: ForteBio Octet affinity. Type of assay: binding, murine. Particulars: hIgG1 (n = 1).
Turning to B1, the “kdis” value was 0.000493 s⁻¹ and the “kon” value is 24900 M⁻¹ s⁻¹.

Regarding B2, the “kdis” value turned out to be 0.000415 s⁻¹ and the “kon” value was 17900 M⁻¹ s⁻¹.

As for B3, the “kdis” value amounted to 0.213 s⁻¹ and the “kon” value came out at 341000 M⁻¹ s⁻¹.

For the molecule B4, the “kdis” value is 0.0498 s⁻¹ and the “kon” value stood at 100000 M⁻¹ s⁻¹.

Turning to B5, the “kdis” value is 0.000551 s⁻¹ and the association rate constant (kon) came to 60200 M⁻¹ s⁻¹.

Still in this assay, the particulars now being: hIgG1-TM (n = 4-7).
With B1, the “kdis” value stood at 0.000476 s⁻¹ and the “kon” value was determined as 18700 M⁻¹ s⁻¹.

On to B2, for which the “kdis” value was 0.000361 s⁻¹ and the “kon” value was determined as 12100 M⁻¹ s⁻¹.

As to B3, the “kdis” value was found to be 0.126 s⁻¹ and the “kon” value came to 203000 M⁻¹ s⁻¹.

Consider B4, for which the “kdis” value came out at 0.0304 s⁻¹ and the association rate constant (kon) came out at 76700 M⁻¹ s⁻¹.

On to B5, for which the “kdis” value came to 0.000524 s⁻¹ and the on-rate constant (kon) was determined as 43000 M⁻¹ s⁻¹.

Another assay relates to SKBR3, A549, OVCAR4, CHO and HEK cells. Nature of the assay: On-cell western, panel of cell types. Type of assay: cell-based. To be noted: compared with control antibodies (lanes E, U, R, S). As for the experimental part:
as §1, §2, §3
For B3, the “binding across cell types” value was “bind a wide spectrum of cell types”.

Take B4: the “binding across cell types” value is on record as “bind a wide spectrum of cell types”.

The subject of the next assay is OVCAR4 cells. The assay can be described thus: On-cell western. The assay is classed as cell-based, human.
Details: not given
As for the experimental part: as §1, §2, §3
For B1, the “binding to OVCAR4 cells” value was “bind”.

Consider B2, for which the “binding to OVCAR4 cells” value is “bind”.

Consider B3, for which the “binding to OVCAR4 cells” value was “bind”.

With B4, the “binding to OVCAR4 cells” value is recorded as “bind”.

The subject of the next assay is transfected HEKs (full length B7-H4 vector). The assay can be described thus: On-cell western. Type of assay: cell-based.
Details: not given
As to the method: as §1, §2, §3
On to B1, for which the “binding to transfected HEKs” value is “good results”.

On to B2, for which the “binding to transfected HEKs” value is recorded as “good results”.

The target of another assay is T2, HumanB7-H4. Nature of the assay: ForteBio Octet affinity. Type of assay: binding. To be noted: hIgG1 (n = 1).
For B1, the “kdis” value was 0.000362 s⁻¹ and the on-rate constant (kon) worked out at 31000 M⁻¹ s⁻¹.

Turning to B2, the “kdis” value is 0.000318 s⁻¹ and the “kon” value stood at 21700 M⁻¹ s⁻¹.

For the molecule B3, the “kdis” value amounted to 0.00321 s⁻¹ and the “kon” value came to 216000 M⁻¹ s⁻¹.

In the case of B4, the “kdis” value was 0.00208 s⁻¹ and the “kon” value came out at 85900 M⁻¹ s⁻¹.

Consider B5, for which the “kdis” value was determined as 0.000363 s⁻¹ and the on-rate (kon) amounted to 48800 M⁻¹ s⁻¹.

Staying with this assay, now noted: hIgG1-TM (n = 4-7).
As for B1, the “kdis” value is 0.000355 s⁻¹ and the “kon” value worked out at 26500 M⁻¹ s⁻¹.

B2: the “kdis” value is 0.000338 s⁻¹ and the “kon” value came to 17100 M⁻¹ s⁻¹.

Consider B3, for which the “kdis” value came out at 0.00278 s⁻¹ and the “kon” value worked out at 193000 M⁻¹ s⁻¹.

Turning to B4, the “kdis” value came to 0.00182 s⁻¹ and the “kon” value was found to be 70900 M⁻¹ s⁻¹.

Regarding B5, the “kdis” value came to 0.000397 s⁻¹ and the on-rate (kon) came to 41600 M⁻¹ s⁻¹.

Another assay concerns the target T3, recombinant mouse B7-H4. The assay can be described thus: SPR affinity of Fab.
Details: not given
The assay is classed as binding. As for the experimental part:
The binding affinity of anti-B7-H4 antibody E02-INT Fab for recombinant human, cynomolgus monkey, and mouse B7-H4 variants were determined by surface plasmon resonance (SPR).
For the molecule B6, the “fold lower affinity for mouse than for human B7-H4 antigen” value was “approximately 100 fold”.

In the next assay the target is T4, monomeric B7-H4-FLAG. The assay can be described thus: HTRF epitope binning.
Details: not given
The assay is classed as binding. As to the method: Epitope binning was performed in an HTRF assay format using the exemplary antibodies (IgG1-TM) conjugated with DyLight-649 binding to the monomeric B7-H4-FLAG LCD with detection with europium conjugated anti-FLAG antibody.
Bin 1 was defined with the ZY0EPQ-E02, ZY0EQD-E02 and ZY0E05-E07 antibodies fully inhibiting each other, and only partial inhibiting ZY0EP0-C07. Bin 2 was defined with the ZY0EOB-F05 antibody fully competing with all antibodies and all antibodies fully competing with it. Bin 3 was defined with ZY0EP0-C07 partially competing with antibodies ZY0EPQ-E02, ZY0EQD-E02 and ZY0E05-E07 (Bin 1).
As for B5, the “Epitope Bin” value is “Bin 3”.

The assay is the same for the next values; noted with them: listed as ZY0EPO-C07.
For the molecule B5, the “Epitope Bin” value came to 3.
